Results on 109 sequences are retold here after the supplement of paper PMC9942255.

The data set relates to Bacillus subtilis DB104 (SP-AmyQ fusion secretion). Nature of the data set: AmyQ secretion efficiency, weighted average sort bin (1 = best secretion, 10 = worst) (bin number (weighted average, 1-10)); higher = lower secretion efficiency. The method, boiled down: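 In this assay, the secretion score is defined as the average bin number weighted by read frequency, normalised to beads per bin, with low-abundance sequences not counted. B. subtilis DB104 cells expressing mature AmyQ behind designed signal peptides (amyE-integrated) were enclosed with fluorescein-starch in ~65 nL alginate beads at about 0.3 cells per bead. Beads grew about 13 h at room temperature, were stained with nile red, and occupied beads went into 10 equally populated green/red fluorescence ratio bins by large-particle flow cytometry, whose amplicons were Illumina-sequenced.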

Several values for one entry are separate records, joined by “and”; a condition that tells them apart may be missing. Equal entries are not always repeated.

Consider MKWMCSICCAAVLLAGGAAQSEAV, for which the AmyQ secretion efficiency was determined as 4.64.

As for MKVLLSALLLLLFAFEPSFASGKKL, the AmyQ secretion efficiency came to 5.58. As for MKKRLIGFLVLVPALIMSGITLREANKK, the AmyQ secretion efficiency was 7.02. Take MKKVLMAFIICLSLILSVLAAPPSGAKCESV: the AmyQ secretion efficiency stood at 3.94. On to MKMKSGMEQAVSVLLLLSRLPVQASLTSH, for which the AmyQ secretion efficiency came to 7.82.

In the case of MKSKWMSGLLLVAVGFSFTQVMSHAGET, the AmyQ secretion efficiency stood at 6.67. MKKKQVMLALTAAAGLGLTALHSAPACKAAPL gave an AmyQ secretion efficiency of 2.29. MLCVMMLLFSAIASFPVSWQAKDQ registered an AmyQ secretion efficiency of 6.99. Take MPYLKRVLLLLVTGLFMSLFAVTATASCQTG: the AmyQ secretion efficiency was 1.26. MKRLCRKKRKKSLFLVLLPGKALGAVD: the AmyQ secretion efficiency came to 7.45. MAIIIAIIAAVIVIAALITFNVQNASPG gave an AmyQ secretion efficiency of 7.71. Sequence MKKVLMAFIICLSLILVVLAAGPSTAKAESV came in with an AmyQ secretion efficiency of 1.98.

In the case of MKLRKVLTGSVLSLGLLRKKSPAFATSP, the AmyQ secretion efficiency amounted to 8.19.

Turning to MKRIRIPMTLALGAALTIAPLSFASWEEN, the AmyQ secretion efficiency turned out to be 6.97. MKRILLSSALSFGMLISAVPALAAGT returned an AmyQ secretion efficiency of 2.79. In turn, MRGKSAVLLSLIMLIAGFLISFYFQM had an AmyQ secretion efficiency of 7.22.

Regarding MKRTWNVCLTALLSVLLVAGSVRRRRKRKHAEAKKP, the AmyQ secretion efficiency is 8.2. In the case of MKKRLIGFLVLVPALIMSGITLEEANKK it was 7.58. The figure for MMKKQVMLALTAAAGLGLTALHSAPAAKAAPL is 2.65.

As to MKVLLSALLLLLFAFEPSISGKKL, the AmyQ secretion efficiency came out at 7.18. MKKQIITATTAVVLGSTLFAGATSAQSI gave an AmyQ secretion efficiency of 1.92. With MKKTMTIGLLFMLCLAALFTIGFPAQQADAAEA, the AmyQ secretion efficiency came to 2.9. As to MNILLILLSSALSFGMLISAVPALAAGT, the AmyQ secretion efficiency stood at 2.56. With MKKIWIGMLAAAVLLLMVPKVGLADAA, the AmyQ secretion efficiency came out at 3.24.

Sequence MMKKLFHSTQGRQSFFSFFGVQPIHAKKQ yielded an AmyQ secretion efficiency of 7.5. As to MKKSYKATALFLGLTPAGANAADL, the AmyQ secretion efficiency turned out to be 8.17. In turn, MKKRLIAPMLLSAASLAFFAMSGSAQQAAY registered an AmyQ secretion efficiency of 8.53. Consider MKRLFMKASLVLFAVVFVFAVKGAGAKAETH, for which the AmyQ secretion efficiency worked out at 1.83. MRNLTKMMNTSLLLAGLCTAAQMVFVTHASAEES: the AmyQ secretion efficiency is 2.48. The figure for MRKKKRHSRLIVLLFFSFFGVQPIHAKKQ is 7.01; for MPYLKRVLLLLVTGLFMSLFAVTATWSAQTG it is 6.1; for MKKKLAAGLTASAIVGTTLVVTPKEAATI it is 4.56. The sequence “MKKMSNSTNSMSVLMAFIICLSLILSVLAAPPSGAKAESV” had an AmyQ secretion efficiency of 1.73.

MTMLRKIIGWILLLCIIPLFAFTVIASGATD returned an AmyQ secretion efficiency of 6.31. MKQFAITLSVLCALILLVPTLLVIPFQHNKMAGASV had an AmyQ secretion efficiency of 5.07. In the case of MKKRKVMLATALFLGLTPAGANAADL it was 4.31; in that of MKSCKQLIVCSLAAILLLPPEVSFAADS, 2.83; in that of MKSKGSIMACLILFSFTITTFISVETISAFSN, 5.39. MTSSGFTVFLILLLMLTLVVAPKEKAEAASS had an AmyQ secretion efficiency of 1.98.

On to MKLRKVLTGSVLSLGLLVSASPAFAEEE, for which the AmyQ secretion efficiency is 2.06. Regarding MKSKWMSGLLLVAVGFSFTQVMVHAGET, the AmyQ secretion efficiency is 6.97 and 4.43 and 7.09. In the case of MLKKIALTLCPAIVGSLLFFTAPLSAHVS it was 3.94. The sequence MKKLLAAGIIGLLTVSIASPSFVAEK registered an AmyQ secretion efficiency of 6.79.

For MKRTWNVCLTALLSVLLVAGSVPFHAEAKKK, the AmyQ secretion efficiency worked out at 2.67.

Take MKKLVLCVSILAVILSGVMLTQLS: the AmyQ secretion efficiency came to 6.44. Consider MKKSQYFIVFICFFVLFSVHPIATAAADS, for which the AmyQ secretion efficiency stood at 3.6. On to MTKKGWQLPLVCVLLISGWLAPAASASAQTT, for which the AmyQ secretion efficiency worked out at 1.79. Sequence MKKISSVMLATALFLGLTPAGANAADL showed an AmyQ secretion efficiency of 3.26. MKRLFMKAKLVLFAVVFVFAVKGAPAKAETH registered an AmyQ secretion efficiency of 2.67. With MFKFKKNGKSRRTAALMSISLFSATASAAST, the AmyQ secretion efficiency worked out at 4.18. For the sequence MNMLKRLSMLTVMIASVFIFSSHALAAQY, the AmyQ secretion efficiency stood at 1.63.

For MNKFLKSNFRFLLAAALGISLLKRSNFIKASND, the AmyQ secretion efficiency is 6.59. The sequence MKLSVKFLFIAGVLTVAAAAMTAKMYATAKGN returned an AmyQ secretion efficiency of 4.51.

In turn, MKKRLIGFLVLVPALIMSGITLYEANKK came in with an AmyQ secretion efficiency of 5.95. Sequence MKTKTLFIFSAILTLSIFAPNETFAQEE gave an AmyQ secretion efficiency of 1.78. In the case of MKKRLIAPMLLSAASLAFFARRKRKKAQAAAY it was 7.44; in that of MKNMSCKLVVSVTLFFSFLRKKKKKAHAQNS, 6.96. MKSKWMSGLLLVAVGFSFTQVMVHGGET showed an AmyQ secretion efficiency of 7.46.

As for MKLKSKLLLMCLALLIVFVGATTIANAPTH, the AmyQ secretion efficiency is 8.04. The sequence MKRLLSTLLIGIMLLFFAGVAFAKQD returned an AmyQ secretion efficiency of 3.63. Consider MRPVFPLILSAVLFLSCFFGARQTEASVSKR, for which the AmyQ secretion efficiency worked out at 2.77. The figure for MMKKLFHSTLIVLLFFSFFGVQIHAKKQ is 2.18.

Sequence MKRITINITIITMFIAAAVISLTGTAEAAEK gave an AmyQ secretion efficiency of 2.69. MRGKSAVLLSLIMLIAGFLISFSFKK came in with an AmyQ secretion efficiency of 6.28. For the sequence MKKRFFGPIILAFILFAGAIAKKK, the AmyQ secretion efficiency amounted to 7.24. The sequence MRKTKKRKLTGLMMFGTITAASASPD gave an AmyQ secretion efficiency of 4.65. In the case of MRKRKVVGFLSVLGLAAVFPLTAQAEKA it was 3.02; in that of MRKRQGSGYGGLMMFGTITAASASPD, 7.27. The sequence MKRTTNLTMLCLWFTVFSLFLVLLPGKALGAVD came in with an AmyQ secretion efficiency of 4.04. For MKKGIIRFLLVSFVLFFALSTGITGVQSAPA, the AmyQ secretion efficiency was determined as 4.46. MKRKLLSSLAISALSLGLLVSAPTASFVAES came in with an AmyQ secretion efficiency of 6.45. Take MKKRINLIGFLVLVPALIMSGITLIEANKK: the AmyQ secretion efficiency was found to be 7.4. Turning to MKRKSMSFSLSNLLSSLAISALSLGLLVSAPTASFAAES, the AmyQ secretion efficiency turned out to be 2.5. Take MKKLFIFSAILTLSIFAPNETFAQTA: the AmyQ secretion efficiency turned out to be 2.72. For the sequence MRKNNNLFFFFMTIFAFLTGLMMFGTITAASASPD, the AmyQ secretion efficiency worked out at 3.7.

MTGGVILAAFILVGSTLGAFSFSSDASAKHV had an AmyQ secretion efficiency of 3.83. For the sequence MKLAKRVSALTPSTTLAITAKSKEL, the AmyQ secretion efficiency was 7.27. The figure for MRKKRRRSLITLGLASVIGTSSFLIPFTSKTASAETL is 1.75; for MKQRRIMIFLTSFMLLAMTGQTALAKDV it is 3.05.

As for “MKRLTLVCSIVFILFILFYDLKIGTIPIQDLPVYEESAKTA”, the AmyQ secretion efficiency turned out to be 5.76. The figure for MRKTIFAFLTGLMMFGTITAQSASPD is 5.11; for MSLITFSLIITSAIIIAIIAAVIVIAALITFNVRNASPG it is 7.04. With MGGGSFSIVFLILLLMLTLVVAPKEKAEAASS, the AmyQ secretion efficiency worked out at 1.53. Turning to MKKKQVMLALTAAAGLGLTALVFFHSAPAAKAAPL, the AmyQ secretion efficiency came out at 2.39.

MFKKHTISLLIIFLLASAVLAKPEEAHTV: the AmyQ secretion efficiency is 4.88.

Take MKKIVSILFMFGLVMFFFTFTAIGVFAADK: the AmyQ secretion efficiency amounted to 4.52. In turn, MKKQQYGQSKKVVLGSTLFAGAASAQSI gave an AmyQ secretion efficiency of 7.51. MKLKKRVSMFLVALTMCGTPAKAVKT had an AmyQ secretion efficiency of 2.72. Turning to MKRTWNVCLTALLSVLLVAGSVKRKKHAEAKKP, the AmyQ secretion efficiency is 7.43. The figure for MKKRKRRNFKRFIAAFLVLALMISLVPADVLGKST is 3.14; for MKWMCSICCAAVLLAGGAMQAEAV it is 3.69; for MIAYFGKCLLLVTIMFLGVLFGMWQANHG it is 7.19. For the sequence MMGRKVLTGSVLSLGLLVSASPAFATSP, the AmyQ secretion efficiency came to 2.07. MLKKIALTLCPAIVGSLLFFTAPASMHVS showed an AmyQ secretion efficiency of 4.09. For the sequence MKRLLVSLRVWMVFLMNWVTPDRKTGAAAVY, the AmyQ secretion efficiency came out at 6.91.

Sequence MTMLRKIIGWILLLCIIPLFAFTVIVSGKEV returned an AmyQ secretion efficiency of 5.52. Sequence MFMKSGMEQAVSVLLLLSRLPVQASLTSE yielded an AmyQ secretion efficiency of 9.96. Take MLCVMMLLFSAIASFPVSMQAKDQ: the AmyQ secretion efficiency was determined as 5.6.

MKKTIMSFVAVAALSTTAFVAFTTSTLSGAHASAKEI: the AmyQ secretion efficiency came to 4.48.

As for MKRTWNVCLTALLSVLLVAGSVPFHVEAKKP, the AmyQ secretion efficiency is 2. Take MLKKIALTLCPAIVGSLLFFTAIASAHVS: the AmyQ secretion efficiency came to 3.46. MKKLLAAGIIGLLTVSIASPSFEAEK came in with an AmyQ secretion efficiency of 6.63. The figure for MIAYFGKCRKRRKRMFLGVLFGMQQANHG is 7.55; for MKKRLIAPMLLSAASLAFFAMSGSDQAAAY it is 4.18; for MKKRKRRNFKRFIAAFLVLALMISLVPADVLAKRK it is 3.6.

Turning to MKSRTIWTIILGALCIAVAYTLTKSQAGASSS, the AmyQ secretion efficiency is 8.18.

MKSKGSIMACLILFSFTITTFINTETRSAFSN came in with an AmyQ secretion efficiency of 8.47. In the case of MKKVSALTPSTTLAITAKAKEL it was 6.89; in that of MKSKGSIMACLILFSFTITTFINTETFSAFSN, 7.43.
